# Laboratory results taken from patent US9550980B2, “Composition and methods for the production of L-homoalanine” (The Regents of the University of California, priority 2010, dated 2017).
# B1: GDH1 (protein, UniProt P07262 2-454, looked up)
# NADP-specific glutamate …: SEPEFQQAYEEVVSSLEDSTLFEQHPEYRKVLPIVSVPERIIQFRVTWENDKGEQEVAQGYRVQYNSAKGPYKGGLRFHPSVNLSILKFLGFEQIFKNSLTGLDMGGGKGGLCVDLKGRSNNEIRRICYAFMRELSRHIGQDTDVPAGDIGVGGREIGYLFGAYRSYKNSWEGVLTGKGLNWGGSLIRPEATGYGLVYYTQAMIDYATNGKESFEGKRVTISGSGNVAQYAALKVIELGGTVVSLSDSKGCIISETGITSEQVADISSAKVNFKSLEQIVNEYSTFSENKVQYIAGARPWTHVQKVDIALPCATQNEVSGEEAKALVAQGVKFIAEGSNMGSTPEAIAVFETARSTATGPSEAVWYGPPKAANLGGVAVSGLEMAQNSQRITWTSERVDQELKRIMINCFNECIDYAKKYTKDGKVLPSLVKGANIASFIKVSDAMFDQGDVF
# B2: GDHwt: wild-type glutamate dehydrogenase of E. coli, N-terminal 6×His-tag (protein, listed as Escherichia coli)
# chain: MDQTYSLESFLNHVQKRDPNQTEFAQAVREVMTTLWPFLEQNPKYRQMSLLERLVEPERVIQFRVVWVDDRNQIQVNRAWRVQFSSAIGPYKGGMRFHPSVNLSILKFLGFEQTFKNALTTLPMGGGKGGSDFDPKGKSEGEVMRFCQALMTELYRHLGADTDVPAGDIGVGGREVGFMAGMMKKLSNNTACVFTGKGLSFGGSLIRPEATGYGLVYFTEAMLKRHGMGFEGMRVSVSGSGNVAQYAIEKAMEFGARVITASDSSGTVVDESGFTKEKLARLIEIKASRDGRVADYAKEFGLVYLEGQQPWSLPVDIALPCATQNELDVDAAHQLIANGVKAVAEGANMPTTIEATELFQQAGVLFAPGKAANAGGVATSGLEMAQNAARLGWKAEKVDARLHHIMLDIHHACVEHGGEGEQTNYVQGANIAGFVKVADAMLAQGVI
# modifications: N-terminal 6xHis tag
# notes: wild-type glutamate dehydrogenase of E. coli, N-terminal 6×His-tag
# B3: TdcB: catabolic threonine dehydratase of E. coli (protein, listed as Escherichia coli)
# chain: MHITYDLPVAIDDIIEAKQRLAGRIYKTGMPRSNYFSERCKGEIFLKFENMQRTGSFKIRGAFNKLSSLTDAEKRKGVVACSAGNHAQGVSLSCAMLGIDGKVVMPKGAPKSKVAATCDYSAEVVLHGDNFNDTIAKVSEIVEMEGRIFIPPYDDPKVIAGQGTIGLEIMEDLYDVDNVIVPIGGGGLIAGIAVAIKSINPTIRVIGVQSENVHGMAASFHSGEITTHRTTGTLADGCDVSRPGNLTYEIVRELVDDIVLVSEDEIRNSMIALIQRNKVVTEGAGALACAALLSGKLDQYIQNRKTVSIISGGNIDLSRVSQITGFVDA
# B4: IlvABS: biosynthetic threonine dehydratase IlvA from Bacillus subtilis (protein, listed as Bacillus subtilis)
# chain: MKPLLKENSLIQVKDILKAHQNVKDVVIHTPLQRNDRLSERYECNIYLKREDLQVVRSFKLRGAYHKMKQLSSEQTENGVVCASAGNHAQGVAFSCKHLGIHGKIFMPSTTPRQKVSQVELFGKGFIDIILTGDTFDDAYKSAAECCEAESRTFIHPFDDPDVMAGQGTLAVEILNDIDTEPHFLFASVGGGGLLSGVGTYLKNVSPDTKVIAVEPAGAASYFESNKAGHVVTLDKIDKFVDGAAVKKIGEETFRTLETVVDDILLVPEGKVCTSILELYNECAVVAEPAGALSVAALDLYKDQIKGKNVVCVVSGGNNDIGRMQEMKERSLIFEGLQHYFIVNFPQRAGALREFLDEVLGPNDDITRFEYTKKNNKSNGPALVGIELQNKADYGPLIERMNKKPFHYVEVNKDEDLFHLLI
# B5: IlvE: branched-chain amino acid aminotransferase of E. coli (protein, UniProt P0AB80 2-309, looked up)
# Branched-chain-amino-acid …: TTKKADYIWFNGEMVRWEDAKVHVMSHALHYGTSVFEGIRCYDSHKGPVVFRHREHMQRLHDSAKIYRFPVSQSIDELMEACRDVIRKNNLTSAYIRPLIFVGDVGMGVNPPAGYSTDVIIAAFPWGAYLGAEALEQGIDAMVSSWNRAAPNTIPTAAKAGGNYLSSLLVGSEARRHGYQEGIALDVNGYISEGAGENLFEVKDGVLFTPPFTSSALPGITRDAIIKLAKELGIEVREQVLSRESLYLADEVFMSGTAAEITPVRSVDGIQVGEGRCGPVTKRIQQAFFGLFTGETEDKWGWLDQVNQ
# Tests used:
# 2-ketobutyrate = assay: Conversion of fed 2-ketobutyrate to L-homoalanine by E. coli BW25113 overexpressing amination enzymes; assay type: cell-based, Escherichia coli; design: L-homoalanine produced: unit not given here; conditions: for L-homoalanine produced: 10 g/L 2-ketobutyrate fed, M9 medium, 37° C., 24 h
# Description: FIG. 2 is a graph comparing different amination enzymes on the production of L-homoalanine. E. coli cultures were inoculated in M9 medium with addition of 10 g/L 2-ketobutyrate and incubated at 37° C. for 24 h. The horizontal axis labels are defined as follows: (A) Wild-type E. coli BW25113; overexpression of (B) transaminase IlvE (C) valine dehydrogenase from Streptomyces avermitilis; (D) valine dehydrogenase from Streptomyces coelicolor, (E) valine dehydrogenase from Streptomyces fradiae; (F) evolved glutamate dehydrogenase GDH1; and (G) evolved glutamate dehydrogenase GDH2. The error bars represent standard deviations from three independent experiments.
# In order to check if any endogenous transaminase of E. coli can work on 2-ketobutyrate, we fed 10 g/L 2-ketobutyrate to wildtype E. coli strain BW25113 growing in M9 medium. […] Since the branched-chain amino acid aminotransferase IlvE (see, e.g. Inoue K, et al. (1988) J Biochem 104(5):777-784) is likely to be a functional candidate, we cloned and overexpressed IlvE in BW25113, which increased the production of L-homoalanine to […] (FIG. 2B). […] However, high concentration of glutamate is needed to drive the reaction equilibrium because transamination is a reversible reaction process. Even under such extreme conditions, the conversion rate of transaminating 2-ketobutyrate to L-homoalanine is only 32%.
# To test the conversion of 2-ketobutyrate to L-homoalanine, plasmids pZElac_IlvE, pZElac_VDHsa, pZElac_VDHsc, pZElac_VDHsf, pZElac_GDH and pZElac_GDH2 were transformed into BW25113. The transformants were inoculated in M9 medium with 5 g/L yeast extract, 10 g/L ammonium hydrochloride and 20 g/L glucose. Once OD reached ˜1.0, 10 g/L 2-ketobutyrate plus 0.1 mM IPTG were added and incubated at 37° C. for 24 h. Amino acids were quantified as o-phthaldialdehyde (OPA) derivatives by HPLC analysis.
# [1] = Enzymatic assay of purified glutamate dehydrogenases, amination of 2-ketobutyrate (NADPH consumption at 340 nm); assay type: biochemical; conditions: 100 mM Tris pH 8.0, 0.2M NH4Cl, 0.2 mM NADPH
# Description: To characterize the enzymes, both the wild-type glutamate dehydrogenase GDHwt and mutant GDH2 were added an N-terminal 6×His-tag, overexpressed, and purified through Ni-NTA columns. The kinetic parameters for […] of 2-ketoglutarate (cognate substrate) and 2-ketoisovalerate or 2-ketobutyrate (nonnatural substrates) were determined by monitoring the consumption of NADPH at 340 nm (FIG. 6). […] The increase in binding affinity is very helpful since high concentration of 2-ketobutyrate interferes with cellular metabolic activities (see, e.g. Daniel et al. (1983) Mol Gen Genet 190(3):452-458). On the basis of the crystallographic model for the active site of GDH, amino group of K92 hydrogenbonds to the γ-carboxyl group of 2-ketoglutarate and determines the substrate specificity (see, e.g. Stillman et al. (1993) J Mol Biol 234(4):1131-1139). Mutation of lysine to valine increases the hydrophobic character of the binding pocket, which explains why the specificity constant kcat/Km of GDH2 towards 2-ketobutyrate is 50-fold higher than that towards the natural substrate 2-ketoglutarate.
# Both gene fragments encoding wildtype glutamate dehydrogenase and GDH2 were amplified using primers GDHbamfwd and GDHbamrev. After digestion with BamHI, the gene fragments were inserted into expression plasmid pQE9 (Qiagen). The resulting expression plasmids were transformed into E. coli strain BL21(DE3) harboring pREP4 (Qiagen). Cells were inoculated from an overnight preculture at 1/100 dilution and grown in 200 mL 2XYT rich medium containing 50 mg/L ampicillin and 25 mg/L kanamycin. At an OD600 of 0.6, recombinant proteins were expressed by induction of the cell cultures with 0.1 mM IPTG, followed by incubation at 30° C. overnight. Overexpressed proteins were then purified with Ni-nitrilotriacetic acid columns. Protein concentration was determined by measuring UV absorbance at 280 nm.
# Enzymatic assay was performed in assay buffer (100 mM Tris buffer, pH 8.0) containing 0.2M NH4Cl, 0.2 mM NADPH, and various concentrations of 2-ketoacids. The reactions were started by adding the purified enzymes, and the consumption of NADPH was monitored at 340 nm (extinction coefficient, 6.22 mM^−1 cm^−1). Kinetic parameters (kcat and Km) were determined by fitting initial velocity data to the Michaelis-Menten equation using Origin.
# threonine = assay: Production of L-homoalanine from glucose by E. coli overexpressing GDH2 and threonine dehydratases; assay type: cell-based, Escherichia coli; conditions: ATCC98082, overexpressed in combination with GDH2
# Excerpt: FIG. 5A is a graph with horizontal axis labels defined as follows: (1) BW25113; (2) BW25113 with overexpression of GDH2; (3) ATCC98082 with overexpression of TdcB & GDH2; (4) ATCC98082 with overexpression of IlvAEc & GDH2; (5) ATCC98082 with overexpression of IlvABS & GDH2; and (6) ATCC98082 (ArhtA) with overexpression of IlvABS and GDH2. FIG. 5B is a graph showing the yield of L-homolalanine biosynthesis from glucose. The error bars represent standard deviations from three independent experiments.
# To test the production of L-homoalanine from glucose, E. coli strain ATCC98082 harboring plasmid pZS_thrO (see, e.g. Zhang et al. (2008) Proc Natl Acad Sci USA 105(52):20653-20658) was transformed with pZElac_tdcB_GDH, pZElac_ilvAEC_GDH and pZElac_ilvABS_GDH. These transformants were subjected to fermentation using the following production medium: 30 g glucose, 17 g (NH4)2SO4, 2 g KH2PO4, 1 g MgSO4.7H2O, 2 g yeast extract, 0.1 g L-valine, 0.01 g FeSO4:7H2O and 0.01 g MnSO4:7H2O per liter. Antibiotics were added appropriately (ampicillin 50 mg/L, spectinomycin 25 mg/L). Overnight 2XYT culture were diluted 25× into fermentation medium and 0.1 mM isopropyl-b-D-thiogalactoside (IPTG) was added to induce protein expression. In shake flask experiments, the culture medium was buffered by addition of 30 g/L CaCO3. Cultures were incubated in 33° C. shaker (250 rpm) for 40-50 h until glucose was consumed.
Molecule,L-homoalanine produced (2-ketobutyrate; BW25113 transformant),L-homoalanine produced from glucose (threonine) [g/L],threonine remaining in fermentation medium (threonine) [g/L],further results
B1,1.6,,,
B2,,,,kcat towards 2-ketobutyrate [1]: 47.2 s⁻¹; Km ([1]; read-out: Km towards 2-ketobutyrate): 35.4 mM
B3,,0.18,3.7,glutamate accumulated (threonine): 4 g/L
B4,,3.8,2.5,
B5,1.2,,,"L-homoalanine titer (2-ketobutyrate; BW25113 transformant, 10 g/L 2-ketobutyrate plus additional 10 g/L glutamate): 3.2 g/L; conversion rate of 2-ketobutyrate to L-homoalanine (2-ketobutyrate; with 10 g/L glutamate as amino donor): 32%"
